This is an account of results in patent US5670316, “Diagnostic applications of double D-loop formation” (Daikin Industries, Ltd.).

This series has as its target RecA (UniProt P0A7G6 P0A7G6:2-353). Briefly: EMSA; 2.4 mM ATPgammaS, 37 C 10 min; retardation increases over 0.137-13.7 uM RecA. Conditions: tags: wild-type, untagged; purified from overproducing strain JC12772 or purchased from Pharmacia; label: 32P 5'-end; both complementary strands, heat denatured. The protocol:
RecA protein coating of probes was normally carried out in a standard 1× RecA coating reaction buffer (10× RecA reaction buffer: 100 mM Tris acetate (pH 7.5 at 37° C.), 20 mM magnesium acetate, 500 mM sodium acetate, 10 mM DTT and 50% glycerol (Cheng et al. 1988). All of the probes, whether double-stranded or single-stranded, were denatured before use by heating to 95°–100° C. for five minutes, placed on ice for one minute, and subjected in a Tomy centrifuge to centrifugation (10,000 rpm) at 0° C. for approximately 20 seconds. Denatured probes were added immediately to room temperature RecA coating reaction buffer mixed with ATPγS and diluent (double-distilled H_2O), as necessary.
Heat denatured ^32P-labeled double-stranded 121-mer and 159-mer DNA probes were reacted with RecA protein as described above. The final RecA-DNA reaction mixtures contained 2.4 mM ATPγS. RecA protein or RecA storage buffer was added to each of four reactions containing 0.01 μg of either denatured 121- or 159-mer DNA probe. The final concentration of RecA in each reaction was 0, 0.137, 1.37 or 13.7 μM in lanes 1 and 5, 2 and 6, 3 and 7 or 4 and 8, respectively (FIG. 3). All RecA/DNA probe coating reactions were performed in a final volume of 10 μl. RecA binding was initiated by incubating all the reactions at 37° C. for 10 min. […]

Chain of RecA (P0A7G6 2-353, one chain of several): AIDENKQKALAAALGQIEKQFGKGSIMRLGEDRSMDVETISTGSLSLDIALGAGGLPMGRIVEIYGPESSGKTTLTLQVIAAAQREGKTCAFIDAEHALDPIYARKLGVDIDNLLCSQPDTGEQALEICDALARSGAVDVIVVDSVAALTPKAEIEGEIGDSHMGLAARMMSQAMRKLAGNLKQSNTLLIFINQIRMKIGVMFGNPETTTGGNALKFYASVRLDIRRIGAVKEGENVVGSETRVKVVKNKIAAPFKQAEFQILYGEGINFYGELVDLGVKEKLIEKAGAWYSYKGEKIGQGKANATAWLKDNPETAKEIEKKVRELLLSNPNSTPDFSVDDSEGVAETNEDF

B1: lambda 159-mer probe (7472-7630), heat denatured (ssDNA)
DNA: CTGCATACTGATGCACTTCACGCCACGCGGGATGAACCTGTGGCATTTGTGCTGCCGGGAACGGCGTTTCGTGTCTCTGCCGGTGTGGCAGCCGAAATGACAGAGCGCGGCCTGGCCAGAATGCAATAACGGGAGGCGCTGTGGCTGATTTCGATAACC
Take B1: the binding result is on record as “binds”.
